From patent US20230296621A1
Values joined by “and” are separate entries in the source; they are usually repeats but may differ in a detail not shown here. Equal values may be shown once.

Experiments:
[1] = biological target: S sensors L15 + S25: S(aa 328-533)-15aa-LgBiT and S(aa 328-533)-25aa-SmBiT (SARS-CoV-2)
[2] = biological target: N sensors LC2 + SC2: N(aa 44-257)-LgBiT and N(aa 44-257)-SmBiT (SARS-CoV-2); test: spLUC, antibody dilution 10000
[3] = biological target: N sensors LC + SC: N(aa 44-180)-10aa-LgBiT and N(aa 44-180)-10aa-SmBiT (SARS-CoV-2); test: spLUC, antibody dilution 10000
[4] = biological target: N sensors LC2 + SC2: N(aa 44-257)-LgBiT and N(aa 44-257)-SmBiT (SARS-CoV-2); test: spLUC, antibody dilution 1000
[5] = biological target: N sensors LC + SC: N(aa 44-180)-10aa-LgBiT and N(aa 44-180)-10aa-SmBiT (SARS-CoV-2); test: spLUC, antibody dilution 1000
[6] = biological target: N sensors LN + SN: LgBiT-10aa-N(aa 44-257) and SmBiT-10aa-N(aa 44-257) (SARS-CoV-2); test: spLUC, antibody dilution 1000
[7] = biological target: N sensors LC2 + SC2: N(aa 44-257)-LgBiT and N(aa 44-257)-SmBiT (SARS-CoV-2); test: spLUC, antibody dilution 1000000
[8] = biological target: N sensors LC + SC: N(aa 44-180)-10aa-LgBiT and N(aa 44-180)-10aa-SmBiT (SARS-CoV-2); test: spLUC, antibody dilution 1000000
[9] = biological target: N sensors LN + SN: LgBiT-10aa-N(aa 44-257) and SmBiT-10aa-N(aa 44-257) (SARS-CoV-2); test: spLUC, antibody dilution 1000000
[10] = biological target: N sensors LC2 + SC2: N(aa 44-257)-LgBiT and N(aa 44-257)-SmBiT (SARS-CoV-2); test: spLUC, antibody dilution 100
[11] = biological target: N sensors LC + SC: N(aa 44-180)-10aa-LgBiT and N(aa 44-180)-10aa-SmBiT (SARS-CoV-2); test: spLUC, antibody dilution 100
[12] = biological target: N sensors LN + SN: LgBiT-10aa-N(aa 44-257) and SmBiT-10aa-N(aa 44-257) (SARS-CoV-2); test: spLUC, antibody dilution 100
[13] = biological target: N sensors LC2 + SC2: N(aa 44-257)-LgBiT and N(aa 44-257)-SmBiT (SARS-CoV-2); test: spLUC, antibody dilution 100000
[14] = biological target: N sensors LC + SC: N(aa 44-180)-10aa-LgBiT and N(aa 44-180)-10aa-SmBiT (SARS-CoV-2); test: spLUC, antibody dilution 100000
[15] = biological target: N sensors LN + SN: LgBiT-10aa-N(aa 44-257) and SmBiT-10aa-N(aa 44-257) (SARS-CoV-2); test: spLUC, antibody dilution 100000

| Substance | percent of signal competed [1] [%] | luminescence signal [2] | luminescence signal [3] | luminescence signal [4] | luminescence signal [5] | luminescence signal [6] | luminescence signal [7] | luminescence signal [8] | luminescence signal [9] | luminescence signal [10] | luminescence signal [11] | luminescence signal [12] | luminescence signal [13] | luminescence signal [14] | luminescence signal [15] |
| --- | --- | --- | --- | --- | --- | --- | --- | --- | --- | --- | --- | --- | --- | --- | --- |
| C105 Fab | 90 | – | – | – | – | – | – | – | – | – | – | – | – | – | – |
| rabbit polyclonal anti-N protein antibody (Sino Biological, Cat#: 40588-T62-50) | – | 563 and 505 | 1030 and 694 | 2910 and 2790 | 4000 and 3560 | 677 and 684 | 332 and 281 | 598 and 600 | 138 and 104 | 9060 and 9420 | 10900 and 10200 | 1970 and 2200 | 475 and 327 | 811 and 592 | 146 and 145 |
